Results taken from doi:10.1101/2021.11.29.470412.

Biological target: Vrl1-Envy (S. cerevisiae)
Experiment: co-IP

recovery of Vin1 in the co-IP: 64%
B1: Vin1-3HA (natural protein)
chain: MENDKASHASPSIGVNEFVVQGEISIDDSERSVKSVSVSISDDEDSKTDVQDNMATPSTRSKFQTDLAIDNRLLEKDPKYKKLFTEKRRRRRPESCINLMTKGKGTGQKDNINDQIFSLRILPGSDLNSLKDSLWIIKISTQPDVEKTIARAFSDFYWLYHQLQNNHWGKTIPPPTRSNILVEKDEFAINHLFMIRNNEKYDPIFNFKPEYIISLQLMAMIKHIFNDKVLRLDSNFIDFISWDDDLPESLQIVVDDSTFTGDKILMTSSQFRELKEFHKQSKKVESITNSHASLIPVTELTEIYISPTKLFSRKDYQRLFQPQSTDNTFNNNDPLIQEWIPKSKTLFTSLSFGSSAPTYQEASTEIQACHDWVSISKEQWKQLLYHVLQYIVDEAVKVNSVINEFTECLKQISLDEVIRANSELFLKFSKLNESFLKKFKGASRQDILKLIILFDENVRFCESFESILNQRLKLGKILSIIEVDLDKKKNFLDKLSPGNNNSNNEDLKIRTAEDEYRIVLKRYNRVKQSWEKIMEDILNERKEFEKREAAEVNSCLKSIRDLNMDEKKHYLQLWQDFVPDEHISQ
